Experimental findings from patent US20240343803A1 (SHANDONG SIMCERE BIOPHARMACEUTICAL, published 2024) are described below.

In experiment [1] the target is T1, human TIGIT ECD-his (fusion protein of extracellular domain of human TIGIT and His-tag) (human).
T1 construct: entry includes the signal peptide, limits not readable here
T1 chain: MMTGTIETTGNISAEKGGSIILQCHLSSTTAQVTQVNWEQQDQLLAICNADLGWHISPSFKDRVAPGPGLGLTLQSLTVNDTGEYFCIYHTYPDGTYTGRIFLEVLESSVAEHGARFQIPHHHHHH
As to the kind of experiment: BIAcore kinetics.

The target in experiment [2] is T2, human TIGIT ECD-hFc (fusion protein of extracellular domain of human TIGIT and human IgG1 Fc fragment) (human).
T2 construct: entry includes the signal peptide, limits not readable here
Briefly: cell ELISA, competition: hTIGIT ECD-hFc to CHO-K1 CD155. As for the experimental part:
After discarding the culture supernatant, the cells were fixed with a cell fixation solution (Beyotime, CAT #P0098), 50 μL/well, at room temperature for 1 hour. After washing once with 0.05% Tween 20-PBS on the Microplate Washer, the plate was added with 5% skim milk powder-PBS, 250 μL/well, and incubated at 37° C. for 2-4 hours. The plate was then washed 3 times with 0.05% Tween 20-PBS on the Microplate Washer. The mouse monoclonal antibodies were mixed with human TIGIT ECD-hFc (working concentration: 30 ng/mL) and incubated for 0.5 hour. The mixed solution of antigen and antibody was added to the cell plate (50 μL/well). The cells were incubated at 37° C. for 1.5-2 hours and then washed with 0.05% Tween 20-PBS for 3 times on the Microplate Washer. The cell plate was then added with 50 μL/well HRP enzyme-labeled antibodies (Merck, CAT #AP113P) diluted with 1% BSA (Sangon Biotech, CAT #A500023-0100)-PBS at a dilution ratio of 1:5000 and incubated at 37° C. for 1 hour. After washing 3 times with 0.05% Tween 20-PBS on the Microplate Washer, the plate was added with TMB chromogenic solution (KPL, CAT #52-00-03), 50 μL/well, and incubated at 37° C. for 10 minutes. 1M HCL, 50 μL/well, was then added into the plate to terminate the reaction, and the OD450 nm was read by a microplate reader (Biotek, Powerwave HT).
Background: In an ELISA, binding on a coated surface is turned into a signal by an enzyme label.

For experiment [3], the target named is T3, cynomolgus monkey TIGIT ECD-hFc (extracellular domain of cynomolgus monkey TIGIT and human IgG1 Fc fragment) (cynomolgus monkey).
T3 construct: entry includes the signal peptide, limits not readable here; also called cynomolgus monkey TIGIT-hFc
Briefly: ELISA.

In experiment [4] the target is T2, human TIGIT ECD-hFc (fusion protein of …). As to the kind of experiment: ELISA.
The target in experiment [5] is T4, full-length cynomolgus monkey TIGIT on CHO-K1 cells (CHO-K1 cynomolgus monkey TIGIT) (cynomolgus monkey).
T4 construct: NCBI XP_015300911.1; also called cynomolgus monkey TIGIT cells
Briefly: cell ELISA. On the procedure:
(§1) After discarding the culture supernatant, the cells were fixed with a cell fixation solution (Beyotime, CAT #P0098), 50 μL/well, at room temperature for 1 hour. After washing once with 0.05% Tween 20-PBS on the Microplate Washer, the plate was added with 5% skim milk powder-PBS, 250 μL/well, and incubated at 37° C. for 2-4 hours. After washing 3 times with 0.05% Tween 20-PBS on the Microplate Washer, the plate was added with purified mouse monoclonal antibodies (diluted to 13 nM with 1% BSA, diluted by 3 fold serial dilution for 12 concentration points), 50 µL/well, incubated at 37° C. for 1.5-2 hours. […] After washing 3 times with 0.05% Tween 20-PBS on the Microplate Washer, the plate was added with TMB chromogenic solution (KPL, CAT #52-00-03), 50 μL/well, and incubated at 37° C. for 10 minutes. 1M HCL, 50 μL/well, was then added into the plate to terminate the reaction, and the OD450 nm was read by a microplate reader (Biotek, Powerwave HT). […] (c) The effect of anti-TIGIT mouse monoclonal antibodies blocking the interaction between Bio-CD155-His and CHO-K1 human TIGIT detected by FACS

For experiment [6], the target named is T5, full-length human TIGIT on CHO-K1 cells (CHO-K1 human TIGIT) (human, UniProt Q495A1 22-244).
T5 construct: NCBI XP_024309156.1; entry includes the signal peptide; also called high expression strain 1D2; medium expression strain 2D10
T5 sequence: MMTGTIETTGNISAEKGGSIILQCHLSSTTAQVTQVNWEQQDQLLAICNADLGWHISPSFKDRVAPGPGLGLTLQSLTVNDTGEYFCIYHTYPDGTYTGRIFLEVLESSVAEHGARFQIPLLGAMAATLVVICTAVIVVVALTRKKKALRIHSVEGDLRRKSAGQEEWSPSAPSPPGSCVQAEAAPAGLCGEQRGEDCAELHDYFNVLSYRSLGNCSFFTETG
As to the kind of experiment: cell ELISA, medium expression strain. As for the experimental part: as §1

In experiment [7] the target is T5, full-length human TIGIT on CHO-K1 cells …. As to the kind of experiment: FACS, competition: Bio-CD155-His to CHO-K1 human TIGIT. On the procedure:
The collected cells were washed once with PBS (Hyclone, CAT #SH30256), resuspended to 2×10⁵/40 μL with 1% BSA-PBS. The antibodies were diluted to 210 nM with 1% BSA-PBS (diluted by 3-fold serial dilution for 12 concentration points). […] The 40 μL cells were then mixed with 40 μL diluted antibodies and 40 μL diluted Bio-CD155-His, and then incubated at 4° C. for 60 minutes. The cells were washed twice with PBS, resuspended with APC labeled streptavidin (dilution ratio 1:1700, Biolegend, 405243), 100 μL/well, and incubated at 4° C. for 40 minutes. The cell samples were washed twice with PBS, resuspended with 1% BSA-PBS, 100 μL/well and then analyzed by flow cytometry (BD, Canto II). […] (d) The effect of anti-TIGIT mouse monoclonal antibodies blocking the interaction between human TIGIT and CHO-K1 CD155 detected by ELISA

For experiment [8] the target is unchanged. Briefly: cell ELISA, low expression strain. On the procedure:
as §1

For experiment [9] the target is unchanged. As to the kind of experiment: cell ELISA, high expression strain. As for the experimental part: as §1

B1: TIGIT-F2-002 (antibody, V domains shown)
VH: EVQLQESGPGLAKPSQTLSLACSVTGYSITSDSWNWIRKFPGNKLEYMGYISYSGNTYYNPSLKSRISITRDTSKNQFYLQLNSVTTEDTATYYCARLDFSNYGGAVDYWGQGTSVTVSS
VL: DIVMTQSHTFMSTSVGDRVSITCKASQNVRTAVAWYQQKPGQSPKLMIYSASYRYTGVPDRFTGSGSGTDFTFTISSVQAEDLAVYYCQQYYTTPWTFGGGAKLEIQ
notes: mouse hybridoma antibody; variable domains are those printed for the chimeric TIGIT-CHI-002 built from the mouse antibody; tie rests on the number 002 only; also called mouse antibody TIGIT-002
Molecule B1 yielded an equilibrium dissociation constant (Kd) in [1] of 47.6 pM. The dissociation rate constant (koff) in [1] was 8.08e-05 s⁻¹. Further, the kon in [1] worked out at 1.7e+06 M⁻¹ s⁻¹. Further, the half-inhibitory concentration (IC50) was 141 pM in experiment [2] and 204 pM in experiment [7]. For the same molecule, the half-maximal effective concentration (EC50) worked out at 17 pM in experiment [3]; 17.1 pM in experiment [4]; 110 pM in experiment [5]; 316 pM in experiment [6]; 273 pM in experiment [8]; 312 pM in [9].

B2: TIGIT-F2-006 (antibody, V domains shown)
VH: EVQLQESGPGLAKPSQTPSLTCSVTGYSMTSDYWNWIRKFPGNKLEYMGYISYSGRTYYNPSLKSRISITRDTSKNQFYLQLNSVTTEDTATYYCARGDYSNYGGAMYDWGQGTSVTVSS
VL: DIVMTQSHKFMSTSVGDRVSITCRASQGVSTTIAWYQQKPGQSPKLLIYSASYRYTGVPDRFTGSGSGTDFTFTISGVQAEDLAVYYCQQYYSSPFTFGGGTKLEIK
notes: mouse hybridoma antibody; variable domains as printed for TIGIT-CHI-006; tie rests on the number 006 only; also called mouse antibody TIGIT-006
On to B2, for which, in experiment [1], the Kd was found to be 41.4 pM. Moreover, the koff in experiment [1] was found to be 3.32e-05 s⁻¹. For the same molecule, the association rate constant (kon) in experiment [1] came out at 800000 M⁻¹ s⁻¹. Besides, the half-maximal inhibitory concentration (IC50) in experiment [2] was determined as 150 pM; in experiment [7], 215 pM. The concentration giving a half-maximal response (EC50) turned out to be 32.7 pM in [3]; 20.8 pM in experiment [4]; 61.6 pM in experiment [5]; 540 pM in experiment [6]; 320 pM in [8]; 480 pM in experiment [9].

B3: RG6058-mIgG2a (antibody, V domains shown)
VH: EVQLQQSGPGLVKPSQTLSLTCAISGDSVSSNSAAWNWIRQSPSRGLEWLGKTYYRFKWYSDYAVSVKGRITINPDTSKNQFSLQLNSVTPEDTAVFYCTRESTTYDLLAGPFDYWGQGTLVTVSS
VL: not shown
notes: mouse IgG2a format by its name; also called Roche RG6058; control antibody RG6058
For the molecule B3, in experiment [1], the Kd was 211 pM. This molecule also returned an off-rate constant (koff) in experiment [1] of 0.000141 s⁻¹. The same molecule gave an on-rate constant (kon) in experiment [1] of 669000 M⁻¹ s⁻¹. Besides, the figures for the half-inhibitory concentration (IC50) in experiment [2] and in experiment [7] were 212 pM and 449 pM, respectively. For the same molecule, the EC50 was determined as 15.2 pM in [3]; 10.8 pM in experiment [4]; 79.1 pM in experiment [5]; 984 pM in experiment [6]; 672 pM in experiment [8]; 1050 pM in experiment [9].

B4: TIGIT-F2-005 (antibody, V domains shown)
VH: QVQLQQSGAELVRPGTSVKVSCKASGYAFTNYLIEWVKQRPGQGLEWIGVINPGSGGTNYKEKFKGKATLTADKSSSTAYMQLSSLTSEDSAVYFCARGEYFFFDYWGQGTTLTVSS
VL: DIVMTQSHKFMSTSVGDRVSITCKASQHVSNGVAWYQHKPGQSPKLLIYSASYRYTGVPDRFTGTGSGTDFTFTISSVQAEDLAVYYCQQHYNTPHTFGGGTKLEIK
notes: mouse hybridoma antibody; variable domains as printed for TIGIT-CHI-005; tie rests on the number 005 only; also called mouse antibody TIGIT-005
Take B4: the Kd in experiment [1] amounted to 33.3 pM. For the same molecule, the off-rate constant (koff) in [1] worked out at 4.47e-05 s⁻¹. This molecule gave an on-rate constant (kon) in experiment [1] of 1.34e+06 M⁻¹ s⁻¹. For the same molecule, the half-inhibitory concentration (IC50) was found to be 133 pM in experiment [2] and 174 pM in experiment [7]. Further, the EC50 in [3] worked out at 14.7 pM; in experiment [4] it was 15 pM; in experiment [5], 77.8 pM; in experiment [6], 386 pM; in experiment [8] it was 231 pM; in experiment [9] it was 388 pM.

B5: TIGIT-F5-070 (antibody, V domains shown)
VH: QVQLQQPGTELVKPGASVKLSCRASGYTFTNYYMHWVKQRPGRGLEWIGRIDPDSGGSKYNEKFKSKATLTVDKLSSTAYMQLSSLTSEDSAVYYCAREGHYGFYSDYWGQGTTLTVSS
VL: DIQMTQSPASLSASVGETVTITCRVSENIYSYLAWYQQKQGKSPQLLVYNAKTLAEGVPSRFSGSGSGTQFSLKINSLQPEDFGNYYCQHHYGNPLTFGAGTKLDLK
notes: mouse hybridoma antibody; variable domains as printed for TIGIT-CHI-070; tie rests on the number 070 only; also called mouse antibody TIGIT-070
Turning to B5, the affinity in [1], expressed as Kd, was 155 pM. In addition, the koff in [1] was 0.000117 s⁻¹. This molecule yielded a kon in experiment [1] of 755000 M⁻¹ s⁻¹. Besides, the values for the IC50 in experiment [2] and in experiment [7] were 136 pM and 340 pM, respectively. Besides, the concentration giving a half-maximal response (EC50) in [3] amounted to 4.3 pM; in experiment [4], 3.9 pM; in [5] it was 27.4 pM; in experiment [6], 664 pM; in [8], 375 pM; in [9], 613 pM.

The term Kd denotes the free concentration of one partner at which half of the binding sites on the other are occupied at equilibrium, for simple one-to-one binding. By koff is commonly meant the first-order rate constant of dissociation. For orientation: kon means the rate constant with which the complex forms. The IC50 is the concentration that gives 50% inhibition. In general, EC50 refers to the concentration needed to bring the measured effect to its halfway point.
